As a reminder, the EC50 is the concentration at which the effect is half-maximal. Read a high EC50 as weaker potency.

We go through one molecule from US20250066499A1 (SUNSHINE GUOJIAN PHARMACEUTICAL SHANGHAI, published 2025).

What all share (assay): ELISA, biotinylated antigen on streptavidin plate
In experiment [1] the target is T1, CD73-ND-V137A (human, UniProt P21589 27-317).
T1 construct: Alanine mutant of CD73-ND
T1 sequence: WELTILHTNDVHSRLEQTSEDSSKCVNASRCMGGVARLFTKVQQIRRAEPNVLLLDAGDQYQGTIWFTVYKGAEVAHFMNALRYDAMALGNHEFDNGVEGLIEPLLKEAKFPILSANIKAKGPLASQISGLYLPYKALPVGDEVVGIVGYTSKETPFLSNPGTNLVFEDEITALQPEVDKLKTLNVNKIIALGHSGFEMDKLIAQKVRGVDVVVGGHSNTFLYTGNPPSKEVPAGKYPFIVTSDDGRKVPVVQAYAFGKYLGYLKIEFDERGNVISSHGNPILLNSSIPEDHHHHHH
As for the experimental part: (§1) The ELISA plates were coated with SA protein diluted to 1.5 μg/mL in coating buffer (50 mM carbonate coating buffer, pH 9.6) and incubated overnight at 4° C. The supernatant was discarded, and the plates were washed three times with PBST. Then, 5% skimmed milk powder prepared with PBS was added for blocking and the plates were incubated for 2 h at 37° C. After washing the plates once with PBST, CD73-biotin protein (prepared by biotinylating CD73-His protein according to the EZ-Link NHS-Biotin Reagent instructions) was diluted to 0.5 μg/mL and added at 100 μL/well for incubation at room temperature for 1 h. The plates were washed three times with PBST, and the prepared murine-derived monoclonal antibodies against human CD73 were serially diluted with 1% BSA buffer prepared with PBST and added to the ELISA plates at 100 μl/well. The plates were incubated at 37° C. for 1 h. After washing the plates three times with PBST, HRP-labeled goat anti-mouse IgG secondary antibody was added and the plates were incubated for 30 min at 37° C. After washing the plates three times with PBST, the residual droplets were patted dry on absorbent paper as much as possible. Then, 100 μl of TMB color developing solution was added to each well, and the plates were incubated in the dark at room temperature for 5 min for color development. Subsequently, 50 μl of 2M H₂SO₄ stop solution was added to each well to terminate the substrate reaction. The OD values were read at 450 nm using a multimode microplate reader to analyze the binding ability of the tested antibodies to the target antigen human CD73-His.
(§2) Referring to the experimental method in Example 3, the affinity of 48A11-HuV33 for various mutant proteins of CD73-ND was determined. The SA protein was diluted to 1 μg/mL for coating the ELISA plates, and the biotinylated CD73 protein (CD73-biotin) was used at a concentration of 0.1 μg/mL.

In experiment [2] the target is T2, CD73-ND-P134A (human, UniProt P21589 27-317).
T2 construct: Alanine mutant of CD73-ND
T2 sequence: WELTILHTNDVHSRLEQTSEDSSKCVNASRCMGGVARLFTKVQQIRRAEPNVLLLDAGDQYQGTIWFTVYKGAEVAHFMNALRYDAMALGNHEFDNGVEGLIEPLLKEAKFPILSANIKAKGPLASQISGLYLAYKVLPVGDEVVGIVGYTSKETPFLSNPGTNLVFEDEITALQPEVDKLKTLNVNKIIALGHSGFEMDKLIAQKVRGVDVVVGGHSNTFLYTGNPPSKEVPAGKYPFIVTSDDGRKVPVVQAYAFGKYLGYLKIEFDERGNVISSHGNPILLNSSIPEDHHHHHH
As for the experimental part: as §1, §2

Experiment [3] deals with T3, CD73-ND-L133A (human, UniProt P21589 27-317).
T3 construct: Alanine mutant of CD73-ND
T3 sequence: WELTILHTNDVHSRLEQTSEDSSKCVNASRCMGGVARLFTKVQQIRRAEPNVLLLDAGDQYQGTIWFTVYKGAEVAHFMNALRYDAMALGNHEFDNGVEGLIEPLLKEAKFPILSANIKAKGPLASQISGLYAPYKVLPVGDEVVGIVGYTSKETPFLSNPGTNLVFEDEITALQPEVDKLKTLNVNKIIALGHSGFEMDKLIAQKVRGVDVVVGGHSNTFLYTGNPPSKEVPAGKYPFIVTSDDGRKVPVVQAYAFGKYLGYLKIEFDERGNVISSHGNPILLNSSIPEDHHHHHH
As to the method:
as §1, §2

In experiment [4] the target is T4, CD73-ND-K136A (human, UniProt P21589 27-317).
T4 construct: Alanine mutant of CD73-ND
T4 sequence: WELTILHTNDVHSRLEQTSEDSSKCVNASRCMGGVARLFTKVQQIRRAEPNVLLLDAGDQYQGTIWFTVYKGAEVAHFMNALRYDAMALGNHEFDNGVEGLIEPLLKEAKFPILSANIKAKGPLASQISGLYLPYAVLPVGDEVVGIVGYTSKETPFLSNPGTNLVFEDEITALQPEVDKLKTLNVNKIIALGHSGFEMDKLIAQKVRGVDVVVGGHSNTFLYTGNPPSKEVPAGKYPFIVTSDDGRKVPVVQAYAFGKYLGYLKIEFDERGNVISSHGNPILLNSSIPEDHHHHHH
As for the experimental part: as §1, §2

In experiment [5] the target is T5, CD73-ND-Y132A (human, UniProt P21589 27-317).
T5 construct: Alanine mutant of CD73-ND
T5 sequence: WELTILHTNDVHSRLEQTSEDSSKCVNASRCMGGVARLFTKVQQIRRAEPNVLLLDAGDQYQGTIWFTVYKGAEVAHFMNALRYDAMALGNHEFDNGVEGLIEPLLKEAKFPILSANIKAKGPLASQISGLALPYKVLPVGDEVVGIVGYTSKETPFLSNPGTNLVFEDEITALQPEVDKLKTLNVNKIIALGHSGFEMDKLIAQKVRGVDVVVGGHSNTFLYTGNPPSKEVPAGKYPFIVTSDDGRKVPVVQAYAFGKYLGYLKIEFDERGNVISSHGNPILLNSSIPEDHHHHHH
As to the method:
as §1, §2

The target of experiment [6] is T6, CD73-ND-his (human, UniProt P21589 27-317).
T6 construct: Biotinylated and captured on streptavidin in the ELISA
T6 sequence: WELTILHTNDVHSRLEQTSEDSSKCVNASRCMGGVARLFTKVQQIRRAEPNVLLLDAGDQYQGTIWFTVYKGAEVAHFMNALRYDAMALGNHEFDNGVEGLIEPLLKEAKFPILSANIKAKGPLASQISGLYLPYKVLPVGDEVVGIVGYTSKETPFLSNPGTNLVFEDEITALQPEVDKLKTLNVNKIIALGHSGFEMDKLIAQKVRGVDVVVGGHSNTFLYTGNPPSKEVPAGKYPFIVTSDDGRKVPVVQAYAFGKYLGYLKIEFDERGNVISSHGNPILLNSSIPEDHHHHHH
As to the method:
as §1, §2

B1: 48A11-HuV33 (antibody, human IgG4, V domains shown)
VH: QVQLVQSGAEVKKPGASVKVSCKASGYTFTSYWMHWVRQAPGQGLEWIGEINPSIGRTNYNEKFKSRVTLTRDTSTSTAYMELSSLRSEDTAVYYCARRVYGTMDYWGQGTLVTVSS
VL: DIQMTQSPSSLSASVGDRVTITCKASQDINSYLSWFQQKPGKSPKLLIYRANIWVDGVPSRFSGSGSGQDYTFTISSLQPEDIATYYCLQYDELYTFGQGTKVEIK
notes: Humanized
As to B1, the EC50 came to 0.891 nM in experiment [1]; 0.205 nM in experiment [2]; 25.8 nM in experiment [3]; 0.145 nM in experiment [4]; 10.5 nM in experiment [5]; 0.152 nM in experiment [6].
